Measurements published in PMC4193741 (PLoS ONE, 2014).

T1: GST-fused PreS2 antigen (PreS2 epitope of HBV) (Hepatitis B virus, PreS2 epitope …)
T1 construct: also called GST-PreS2; PreS2 of HBV; not shown: GST, N-terminal, kept
T1 chain: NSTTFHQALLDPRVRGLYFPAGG

T2: GST-fused N1 antigen (N1 epitope of H1N1 influenza virus) (Influenza A virus H1N1, neuraminidase …)
T2 construct: not shown: GST, N-terminal, kept
T2 chain: CRDNWHGSNRPW

B1: SP1 scFv (scFv, V domains shown)
VH: EVQLLESGGGLVQPGGSLRLSCAASGFTFSDYAMYWVRQAPGKGLEWVSGIDINGSNTKYADSVKGRFTISRDNSKNTLYLQMNSLRAEDTAVYYCARKYNHNNHQNTTNFDYWGQGTLVTVSS
VL: EIVLTQSPGTLSLSPGERATLSCRASQNSSSYLSWYQQKPGQAPRLLIYYTSKLESGIPDRFSGSGSGTDFTLTISRLEPEDFAVYYCETVPSLLGVFGQGTKVEIK
notes: also called clone SP1; anti-PreS2 SP1 scFv
B2: S5 scFv (scFv, V domains shown)
VH: EVQLLESGGGLVQPGGSLRLSCAASGFTFSNYCIGWVRQAPGKGLEWVSPINSNNSNTEYADSVKGRFTISRDNSKNTLYLQMNSLRAEDTAVYYCARCSLPQISHFDYWGQGTLVTVSS
VL: EIVLTQSPGTLSLSPGERATLSCRASQNVSNYVSWYQQKPGQAPRLLIYDISTLQTGIPDRFSGSGSGTDFTLTISRLEPEDFAVYYCPKRVSTGGTFGQGTKVEIK

Experiments:
[1] = molecular target: T1, GST-fused PreS2 antigen (PreS2 epitope …); test: SPR; Biacore 3000, CM5 chip; […], PBS running buffer; […]; details: both partners purified
[2] = molecular target: T2, GST-fused N1 antigen (N1 epitope of …); test: as above; details: both partners purified

Binder | Kd [1] [nM] | Kd [2] [nM]
B1 | 11.5 | –
B2 | – | 11
